Assay results published in patent US20230357348A1 (AstraZeneca / MedImmune, published 2023).
Starred links: 1 amine or outer side, 2 acyl side, 3 side chain; linkers in the order of their positions; H or OH if unused. Non-standard residues stand in square brackets, D forms with d. Groups on a side chain read outwards from the residue. No end group written: not given here. *: point of attachment. C20 diacid = O=C(O)CCCCCCCCCCCCCCCCCCC(=O)*; C18 diacid = O=C(O)CCCCCCCCCCCCCCCCC(=O)*; γGlu = O=C(O)[C@H](CCC(=O)[*:2])N[*:1]; αMeF = C[C@](N)(Cc1ccccc1)C(=O)O; AEEA = NCCOCCOCC(=O)O; Aib = CC(C)(N)C(=O)O

Legend:
[1] = target: human GLP-1 receptor (hGLP-1R) (human, UniProt P43220 24-463); test: cell-based or functional assay
[2] = target: human glucagon receptor (hGCGR) (human, UniProt P47871 26-477); test: cell-based or functional assay
Chain of human glucagon receptor (hGCGR) (P47871 26-477): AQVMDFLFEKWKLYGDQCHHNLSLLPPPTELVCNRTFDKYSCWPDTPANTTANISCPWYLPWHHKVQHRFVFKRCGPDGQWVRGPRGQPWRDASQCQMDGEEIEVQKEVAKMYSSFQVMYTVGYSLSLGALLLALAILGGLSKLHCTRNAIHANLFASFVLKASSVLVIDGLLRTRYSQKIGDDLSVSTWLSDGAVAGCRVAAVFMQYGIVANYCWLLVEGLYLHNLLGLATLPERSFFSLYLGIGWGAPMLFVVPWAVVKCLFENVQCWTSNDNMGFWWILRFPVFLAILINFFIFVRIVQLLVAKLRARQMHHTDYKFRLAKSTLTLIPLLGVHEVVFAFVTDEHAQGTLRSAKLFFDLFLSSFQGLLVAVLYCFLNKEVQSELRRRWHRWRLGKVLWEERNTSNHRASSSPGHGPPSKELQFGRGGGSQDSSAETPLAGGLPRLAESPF

hGLP-1R EC50 (pM) [1]	hGluc-R EC50 (pM) [2]	Binder
543 pM	1620 pM	H[Aib]QGTFTSDVSK[αMeF]LDTKRARDFVQWLLE[Aib]G-OH (not fully specified (residue 17)) [Peptide 520]
11.9 pM	20.4 pM	H[Aib]QGTFTSDVSK[αMeF]LDSK([AEEA-AEEA-γGlu-C18 diacid])RAQDFVRWLL[Aib]E-OH (N-terminus assumed; SMILES CC(C)C[C@H](NC(=O)[C@H](Cc1c[nH]c2ccccc12)NC(=O)[C@H](CCCNC(=N)N)NC(=O)[C@@H](NC(=O)[C@H](Cc1ccccc1)NC(=O)[C@H](CC(=O)O)NC(=O)[C@H](CCC(N)=O)NC(=O)[C@H](C)NC(=O)[C@H](CCCNC(=N)N)NC(=O)[C@H](CCCCNC(=O)COCCOCCNC(=O)COCCOCCNC(=O)CC[C@H](NC(=O)CCCCCCCCCCCCCCCCC(=O)O)C(=O)O)NC(=O)[C@H](CO)NC(=O)[C@H](CC(=O)O)NC(=O)[C@H](CC(C)C)NC(=O)[C@](C)(Cc1ccccc1)NC(=O)[C@H](CCCCN)NC(=O)[C@H](CO)NC(=O)[C@@H](NC(=O)[C@H](CC(=O)O)NC(=O)[C@H](CO)NC(=O)[C@@H](NC(=O)[C@H](Cc1ccccc1)NC(=O)[C@@H](NC(=O)CNC(=O)[C@H](CCC(N)=O)NC(=O)C(C)(C)NC(=O)[C@@H](N)Cc1c[nH]cn1)[C@@H](C)O)[C@@H](C)O)C(C)C)C(C)C)C(=O)N[C@@H](CC(C)C)C(=O)NC(C)(C)C(=O)N[C@@H](CCC(=O)O)C(=O)O) [Peptide 152]
48 pM	270 pM	H[Aib]QGTFTSDVSK[αMeF]LDSK([AEEA-AEEA-γGlu-C18 diacid])RARDFVRWLL[Aib]TE-OH (N-terminus assumed; SMILES CC(C)C[C@H](NC(=O)[C@H](Cc1c[nH]c2ccccc12)NC(=O)[C@H](CCCNC(=N)N)NC(=O)[C@@H](NC(=O)[C@H](Cc1ccccc1)NC(=O)[C@H](CC(=O)O)NC(=O)[C@H](CCCNC(=N)N)NC(=O)[C@H](C)NC(=O)[C@H](CCCNC(=N)N)NC(=O)[C@H](CCCCNC(=O)COCCOCCNC(=O)COCCOCCNC(=O)CC[C@H](NC(=O)CCCCCCCCCCCCCCCCC(=O)O)C(=O)O)NC(=O)[C@H](CO)NC(=O)[C@H](CC(=O)O)NC(=O)[C@H](CC(C)C)NC(=O)[C@](C)(Cc1ccccc1)NC(=O)[C@H](CCCCN)NC(=O)[C@H](CO)NC(=O)[C@@H](NC(=O)[C@H](CC(=O)O)NC(=O)[C@H](CO)NC(=O)[C@@H](NC(=O)[C@H](Cc1ccccc1)NC(=O)[C@@H](NC(=O)CNC(=O)[C@H](CCC(N)=O)NC(=O)C(C)(C)NC(=O)[C@@H](N)Cc1c[nH]cn1)[C@@H](C)O)[C@@H](C)O)C(C)C)C(C)C)C(=O)N[C@@H](CC(C)C)C(=O)NC(C)(C)C(=O)N[C@H](C(=O)N[C@@H](CCC(=O)O)C(=O)O)[C@@H](C)O) [Peptide 166]
172 pM	386 pM	H[Aib]QGTFTSDVSK[αMeF]LDTK([γGlu-γGlu-AEEA-AEEA-γGlu-γGlu-C18 diacid])RARDFVQWLLE[Aib]G-OH (N-terminus assumed; SMILES CC(C)C[C@H](NC(=O)[C@H](Cc1c[nH]c2ccccc12)NC(=O)[C@H](CCC(N)=O)NC(=O)[C@@H](NC(=O)[C@H](Cc1ccccc1)NC(=O)[C@H](CC(=O)O)NC(=O)[C@H](CCCNC(=N)N)NC(=O)[C@H](C)NC(=O)[C@H](CCCNC(=N)N)NC(=O)[C@H](CCCCNC(=O)CC[C@H](NC(=O)CC[C@H](NC(=O)COCCOCCNC(=O)COCCOCCNC(=O)CC[C@H](NC(=O)CC[C@H](NC(=O)CCCCCCCCCCCCCCCCC(=O)O)C(=O)O)C(=O)O)C(=O)O)C(=O)O)NC(=O)[C@@H](NC(=O)[C@H](CC(=O)O)NC(=O)[C@H](CC(C)C)NC(=O)[C@](C)(Cc1ccccc1)NC(=O)[C@H](CCCCN)NC(=O)[C@H](CO)NC(=O)[C@@H](NC(=O)[C@H](CC(=O)O)NC(=O)[C@H](CO)NC(=O)[C@@H](NC(=O)[C@H](Cc1ccccc1)NC(=O)[C@@H](NC(=O)CNC(=O)[C@H](CCC(N)=O)NC(=O)C(C)(C)NC(=O)[C@@H](N)Cc1c[nH]cn1)[C@@H](C)O)[C@@H](C)O)C(C)C)[C@@H](C)O)C(C)C)C(=O)N[C@@H](CC(C)C)C(=O)N[C@@H](CCC(=O)O)C(=O)NC(C)(C)C(=O)NCC(=O)O) [Peptide 519]
166 pM	355 pM	H[Aib]QGTFTSDVSK[αMeF]LDSK([AEEA-AEEA-γGlu-C18 diacid])RAQDFVQWLL[Aib]TE-OH (N-terminus assumed; SMILES CC(C)C[C@H](NC(=O)[C@H](Cc1c[nH]c2ccccc12)NC(=O)[C@H](CCC(N)=O)NC(=O)[C@@H](NC(=O)[C@H](Cc1ccccc1)NC(=O)[C@H](CC(=O)O)NC(=O)[C@H](CCC(N)=O)NC(=O)[C@H](C)NC(=O)[C@H](CCCNC(=N)N)NC(=O)[C@H](CCCCNC(=O)COCCOCCNC(=O)COCCOCCNC(=O)CC[C@H](NC(=O)CCCCCCCCCCCCCCCCC(=O)O)C(=O)O)NC(=O)[C@H](CO)NC(=O)[C@H](CC(=O)O)NC(=O)[C@H](CC(C)C)NC(=O)[C@](C)(Cc1ccccc1)NC(=O)[C@H](CCCCN)NC(=O)[C@H](CO)NC(=O)[C@@H](NC(=O)[C@H](CC(=O)O)NC(=O)[C@H](CO)NC(=O)[C@@H](NC(=O)[C@H](Cc1ccccc1)NC(=O)[C@@H](NC(=O)CNC(=O)[C@H](CCC(N)=O)NC(=O)C(C)(C)NC(=O)[C@@H](N)Cc1c[nH]cn1)[C@@H](C)O)[C@@H](C)O)C(C)C)C(C)C)C(=O)N[C@@H](CC(C)C)C(=O)NC(C)(C)C(=O)N[C@H](C(=O)N[C@@H](CCC(=O)O)C(=O)O)[C@@H](C)O) [Peptide 150]
41.2 pM	99 pM	H[Aib]QGTFTSDVSK[αMeF]LDSK([AEEA-AEEA-γGlu-C20 diacid])RAQDFVRWLL[Aib]E-OH (N-terminus assumed; SMILES CC(C)C[C@H](NC(=O)[C@H](Cc1c[nH]c2ccccc12)NC(=O)[C@H](CCCNC(=N)N)NC(=O)[C@@H](NC(=O)[C@H](Cc1ccccc1)NC(=O)[C@H](CC(=O)O)NC(=O)[C@H](CCC(N)=O)NC(=O)[C@H](C)NC(=O)[C@H](CCCNC(=N)N)NC(=O)[C@H](CCCCNC(=O)COCCOCCNC(=O)COCCOCCNC(=O)CC[C@H](NC(=O)CCCCCCCCCCCCCCCCCCC(=O)O)C(=O)O)NC(=O)[C@H](CO)NC(=O)[C@H](CC(=O)O)NC(=O)[C@H](CC(C)C)NC(=O)[C@](C)(Cc1ccccc1)NC(=O)[C@H](CCCCN)NC(=O)[C@H](CO)NC(=O)[C@@H](NC(=O)[C@H](CC(=O)O)NC(=O)[C@H](CO)NC(=O)[C@@H](NC(=O)[C@H](Cc1ccccc1)NC(=O)[C@@H](NC(=O)CNC(=O)[C@H](CCC(N)=O)NC(=O)C(C)(C)NC(=O)[C@@H](N)Cc1c[nH]cn1)[C@@H](C)O)[C@@H](C)O)C(C)C)C(C)C)C(=O)N[C@@H](CC(C)C)C(=O)NC(C)(C)C(=O)N[C@@H](CCC(=O)O)C(=O)O) [Peptide 153]
31 pM	77.3 pM	H[Aib]QGTFTSDVSK[αMeF]LDTK([AEEA-AEEA-γGlu-γGlu-C18 diacid])RARDFVQWLLE[Aib]G-OH (N-terminus assumed; SMILES CC(C)C[C@H](NC(=O)[C@H](Cc1c[nH]c2ccccc12)NC(=O)[C@H](CCC(N)=O)NC(=O)[C@@H](NC(=O)[C@H](Cc1ccccc1)NC(=O)[C@H](CC(=O)O)NC(=O)[C@H](CCCNC(=N)N)NC(=O)[C@H](C)NC(=O)[C@H](CCCNC(=N)N)NC(=O)[C@H](CCCCNC(=O)COCCOCCNC(=O)COCCOCCNC(=O)CC[C@H](NC(=O)CC[C@H](NC(=O)CCCCCCCCCCCCCCCCC(=O)O)C(=O)O)C(=O)O)NC(=O)[C@@H](NC(=O)[C@H](CC(=O)O)NC(=O)[C@H](CC(C)C)NC(=O)[C@](C)(Cc1ccccc1)NC(=O)[C@H](CCCCN)NC(=O)[C@H](CO)NC(=O)[C@@H](NC(=O)[C@H](CC(=O)O)NC(=O)[C@H](CO)NC(=O)[C@@H](NC(=O)[C@H](Cc1ccccc1)NC(=O)[C@@H](NC(=O)CNC(=O)[C@H](CCC(N)=O)NC(=O)C(C)(C)NC(=O)[C@@H](N)Cc1c[nH]cn1)[C@@H](C)O)[C@@H](C)O)C(C)C)[C@@H](C)O)C(C)C)C(=O)N[C@@H](CC(C)C)C(=O)N[C@@H](CCC(=O)O)C(=O)NC(C)(C)C(=O)NCC(=O)O) [Peptide 518]
111 pM	178 pM	H[Aib]QGTFTSDVSK[αMeF]LDSK([AEEA-AEEA-γGlu-C20 diacid])RAQDFVRWLL[Aib]TE-OH (N-terminus assumed; SMILES CC(C)C[C@H](NC(=O)[C@H](Cc1c[nH]c2ccccc12)NC(=O)[C@H](CCCNC(=N)N)NC(=O)[C@@H](NC(=O)[C@H](Cc1ccccc1)NC(=O)[C@H](CC(=O)O)NC(=O)[C@H](CCC(N)=O)NC(=O)[C@H](C)NC(=O)[C@H](CCCNC(=N)N)NC(=O)[C@H](CCCCNC(=O)COCCOCCNC(=O)COCCOCCNC(=O)CC[C@H](NC(=O)CCCCCCCCCCCCCCCCCCC(=O)O)C(=O)O)NC(=O)[C@H](CO)NC(=O)[C@H](CC(=O)O)NC(=O)[C@H](CC(C)C)NC(=O)[C@](C)(Cc1ccccc1)NC(=O)[C@H](CCCCN)NC(=O)[C@H](CO)NC(=O)[C@@H](NC(=O)[C@H](CC(=O)O)NC(=O)[C@H](CO)NC(=O)[C@@H](NC(=O)[C@H](Cc1ccccc1)NC(=O)[C@@H](NC(=O)CNC(=O)[C@H](CCC(N)=O)NC(=O)C(C)(C)NC(=O)[C@@H](N)Cc1c[nH]cn1)[C@@H](C)O)[C@@H](C)O)C(C)C)C(C)C)C(=O)N[C@@H](CC(C)C)C(=O)NC(C)(C)C(=O)N[C@H](C(=O)N[C@@H](CCC(=O)O)C(=O)O)[C@@H](C)O) [Peptide 151]
